Test results reported in article PMC5743070 (The Journal of Biological Chemistry, 2017).

Legend:
TTD (UHRF1_121–286) [1] = target: T1, TTD (UHRF1_121–286) (Homo sapiens, UniProt Q96T88); assay: (1H-15N) HSQC NMR titration of TTD; format: binding; conditions: (1H-15N) HSQC spectra of TTD
T1 construct: UHRF1_121–286 corresponding to the TTD; made in house
T1 sequence (Q96T88 121-286): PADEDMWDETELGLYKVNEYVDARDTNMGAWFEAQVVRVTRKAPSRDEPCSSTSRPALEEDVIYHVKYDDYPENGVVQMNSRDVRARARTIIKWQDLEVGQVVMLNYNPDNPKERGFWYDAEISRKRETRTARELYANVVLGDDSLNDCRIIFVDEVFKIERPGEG
Description: We designed a fragment library containing 2,040 compounds that was initially screened against isolated TTD (UHRF1_121–286) using a fluorescence polarization (FP) assay that tracked the displacement of a N-terminally tagged H3K9me3 peptide (H3K9me3(1–25)). From this screen, eight putative TTD-binding hits were identified. […] Because of limited commercial availability of the tricyclic amine, we focused only on BPC. The binding of this compound occurs close to (or within) the Arg^296-binding pocket; we observe significant perturbation of Trp^238 and Phe^278 resonances that form part of the pocket, and in Gly^236, which is directly adjacent to it (Fig. 4A and supplemental Fig. S5). We also see chemical shift changes in non-surface exposed residues that are close to or are in contact with the groove.
(§1) NMR samples were buffered in 20 mM sodium phosphate (pH 7.5), 150 mM NaCl, 5 mM DTT, 5 mM β-mercaptoethanol, 2 mM TCEP, and 10 μM ZnSO4. The protein concentration was between 200 and 300 μM for all samples. The data were collected at 25 °C on Bruker spectrometers equipped with cryoprobes and operating at 500, 600, or 800 MHz. The assignment of backbone TTD–PHD resonances was accomplished using the ABACUS method ([29]) for which standard backbone and ^15N-edited NOESY spectra were collected using ^15N/^13C/^2H- or ^15N/^13C-labeled protein. All 3D experiments were acquired using non-uniform sampling and processed using the software MDDGUI ([30]) or qMDD ([31]). ^15N-Labeled TTD–PHD was used to acquire ^15N T1 and T2 relaxation and ^1H-^15N heteronuclear NOE measurements ([32]) collected using standard Bruker pulse schemes in an interleaved manner. For T1 measurements, the variable delay was set to 0.1, 0.4, 0.8, 1.5, 2.0, 2.5, 3.5, and 5 s. For T2 measurements, the variable delay was set to 16, 32, 48, 64, 80, 96, 128, and 144 ms. The D1 was 3 s for all experiments. Reported values were the average from two measurements. All spectra were processed using NMRPipe ([33]) and analyzed with SPARKY ([34]).
Figure S5 (related to Fig. 4)
Binding of BPC in the groove of TTD. […]
labeled (at the N-terminus) H3K9me3(1-25) peptide, (B) ITC, and (C) DSF. (D) KD estimates of BPC bind-ing based on I211 and Y239 amide peak movement (where Δ(ppm) = ((ΔδHN)2 + (ΔδN/6.5)2 )1⁄2) in (1H-15N) HSQC spectra when the TTD is titrated with BPC. […]
as a function of TTD sequence resulting from BPC (blue) or PBR peptide (red) binding. (F) HSQC overlays […]
ment:protein), and PBR peptide ratios (bottom spectrum - from 1:1 to 5:1 peptide:protein). The protein con-centration was ~250 µM for all NMR experiments, and the DMSO concentration was 5% for NMR titrations […]
(§2) (1 picture or pasted object on this page, not shown here)

TTD–PHD (UHRF1_126–366) [2] = target: T2, TTD–PHD (UHRF1_126–366) (Homo sapiens, UniProt Q96T88); assay: (1H-15N) TROSY NMR titration of TTD–PHD; format: binding
T2 construct: His tag (TEV-cleavable) (N); made in house
T2 sequence (Q96T88 126-366): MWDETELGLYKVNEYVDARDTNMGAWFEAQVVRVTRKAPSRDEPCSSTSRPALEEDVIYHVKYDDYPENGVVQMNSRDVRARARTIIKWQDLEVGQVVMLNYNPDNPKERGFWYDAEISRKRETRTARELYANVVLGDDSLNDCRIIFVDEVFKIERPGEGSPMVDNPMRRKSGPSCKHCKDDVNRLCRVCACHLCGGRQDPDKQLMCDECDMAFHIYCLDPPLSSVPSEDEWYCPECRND
Description: Exchange broadening is clearly observed for Arg^282, Gly^284, Asp^291, Asn^292, Met^294, and Ser^301 amide resonances at 1:3 protein/BPC ratios, with perturbations also seen with Gly^286 and Gly^299 (Fig. 4 and supplemental Fig. S6).
as §1

TTD–PHD (UHRF1_126–366) [3] = target: T2, TTD–PHD (UHRF1_126–366); assay: ITC of H3 peptide binding to TTD–PHD
Description: A preliminary peptide injection of 0.06 μl was followed by subsequent 2-μl injections into the sample cell containing 167 μl of 50 μM TTD–PHD. Where indicated, 1.5 mM BPC or 1.5 mM PBR peptide was included in the injection syringe and sample cell. The reported KD and n values are based on the average from two measurements. For ITC measurements of TTD (UHRF1_121–286) interaction with BPC, the protein was buffered in 20 mM Tris (pH 7.4), 50 mM NaCl, and 5% DMSO. BPC was brought to a concentration of 2.5 mM and injected into the sample cell containing 40 μM protein. The data were acquired on a Nano ITC from TA Instruments at 25 °C and fitted with an independent-binding site model using NanoAnalyze software (v3.7.0).
ITC curves showing TTD-PHD binding to methylated (red) and unmethylated (black) H3 peptide.
as §2

TTD (UHRF1_121–286) [4] = target: T1, TTD (UHRF1_121–286); assay: HSQC competition of BPC and linker peptide on TTD; format: binding; conditions: BPC 2.4 mM, linker peptide 3.0 mM, 5% DMSO; I211, I212 and E281 resonances in HSQC
Description: as §1, with “([34]). […]” for “([34]).”
trated by the perturbation of I211, I212 and E281 resonances in HSQC spectra of the TTD in a competition assay. […]

Row | Substance | binding site on TTD by amide peak movement (TTD (UHRF1_121–286) [1]) | effect on linker resonances of TTD–PHD (TTD–PHD (UHRF1_126–366) [2]; (1H-15N) TROSY, ~250 μM protein/750 μM ligand) | effect on TTD–PHD conformation (TTD–PHD (UHRF1_126–366) [2]; Fig. 4) | effect on TTD–PHD binding affinity for the histone peptide (TTD–PHD (UHRF1_126–366) [3]; 1.5 mM BPC (4% DMSO) or 1.5 mM PBR peptide, H3K9me3(1–15)) | increase of KD for H3K9me3 (effect of added ligand) (TTD–PHD (UHRF1_126–366) [3]; 1.5 mM BPC or PBR peptide in syringe and cell, vs apo TTD–PHD) [fold] | competition for the TTD groove (TTD (UHRF1_121–286) [4])
1 | PBR peptide: 15-residue peptide corresponding to the PBR (UHRF1_643–657) (GKGKWKRKSAGGGPS; UniProt Q96T88 643-657, looked up, fragment) [reference compound] | binding in the groove | strikingly similar peak broadening/perturbation pattern | promote open TTD–PHD conformations | reduces the TTD–PHD binding affinity for the histone peptide | ~5 | –
2 | linker peptide: linker peptide (corresponding to UHRF1286-300) (GSPMVDNPMRRKSGP; UniProt Q96T88 286-300, looked up, fragment) [reference compound] | – | – | – | – | – | compete directly for the TTD groove
